{
  "source": "patent US6146878",
  "key": {"TyrR (Escherichia coli)": {"system": "TyrR (Escherichia coli)", "assay": "cell_activity", "settings": "beta-galactosidase reporter, M9 + 2 mM L-tyrosine, 37 C; 29.1 without tyrosine; indirect evidence of binding"}, "[1]": {"molecular_target": "T1, TyrR (tyrosine repressor) (Erwinia herbicola) (UniProt Q9ZIB7)", "T1 sequence": "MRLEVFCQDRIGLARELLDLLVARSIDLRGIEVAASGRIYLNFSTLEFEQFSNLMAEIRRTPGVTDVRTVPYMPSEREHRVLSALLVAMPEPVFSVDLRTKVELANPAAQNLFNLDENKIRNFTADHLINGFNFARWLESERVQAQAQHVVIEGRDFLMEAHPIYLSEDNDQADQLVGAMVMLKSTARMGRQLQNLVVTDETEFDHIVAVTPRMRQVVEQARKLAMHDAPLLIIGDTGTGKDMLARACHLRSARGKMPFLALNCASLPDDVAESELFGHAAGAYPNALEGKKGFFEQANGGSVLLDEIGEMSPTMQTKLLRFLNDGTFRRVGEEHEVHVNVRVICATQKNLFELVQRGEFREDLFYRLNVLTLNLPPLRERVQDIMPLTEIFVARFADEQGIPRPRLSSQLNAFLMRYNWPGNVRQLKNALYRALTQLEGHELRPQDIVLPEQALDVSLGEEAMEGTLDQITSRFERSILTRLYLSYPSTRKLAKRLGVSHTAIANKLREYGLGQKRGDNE", "assay": "cell_activity", "settings": "beta-galactosidase reporter, M9 + 2 mM L-tyrosine, 37 C; 35.5 without tyrosine; indirect evidence of binding"}},
  "data": [
    {"substance": "tpl promoter/enhancer region (about 480 bp, tpl'-'lac fusion)", "values": [
      {"measurement": "activity", "setting": "TyrR (Escherichia coli)", "result": 324, "unit": "Miller units"},
      {"measurement": "activity", "setting": "[1]", "result": 656, "unit": "Miller units"}
    ]}
  ]
}
